Holding throughout (experiment): competitive ELISA
For orientation: An ELISA detects its analyte on a solid surface through an enzyme-linked reagent.

Assay [1] addresses affinity purified β2GPI-dependent antiphospholipid antibody from patient 6203.
Assay [2] addresses affinity purified β2GPI-dependent antiphospholipid antibody from patient 6501.
Assay [3] has as its target affinity purified β2GPI-dependent antiphospholipid antibody from patient 6509.
Assay [4] deals with affinity purified β2GPI-dependent antiphospholipid antibody from patient 6626.
For assay [5], the target named is affinity purified β2GPI-dependent antiphospholipid antibody from patient 6632.
Assay [6] addresses affinity purified β2GPI-dependent antiphospholipid antibody from patient 6641.
Assay [7] has as its target affinity purified β2GPI-dependent antiphospholipid antibody from patient 6644.
Assay [8] concerns the target affinity purified β2GPI-dependent antiphospholipid antibody from patient 6652.
For assay [9], the target named is affinity purified β2GPI-dependent antiphospholipid antibody from patient 6701.
Assay [10] deals with affinity purified β2GPI-dependent antiphospholipid antibody from patient 7008.
Assay [11] addresses affinity purified β2GPI-dependent antiphospholipid antibody from patient 7015.
Assay [12] concerns the target affinity purified β2GPI-dependent antiphospholipid antibody from patient 7101.
Assay [13] has as its target affinity purified β2GPI-dependent antiphospholipid antibody from patient 7104.

B1: recombinant human β2GPI domain 5, GlyHis6 (protein)
chain: GRASCKLPVKKATVVYQGERVKIQEKFKNGMLHGDKVSFFCKNKEKKCSYTEDAQCIDGTIEVPKCFKEHSSLAFWKTDASDVKPCGHHHHHH
Take B1: the Max inhibition in [1] was determined as 5%; in assay [2], 10%; in assay [3], 10%; in [4], 10%; in assay [5], 10%; in assay [6], 10%. For the same molecule, the Max inhibition in assay [7] came to 10%; in [8], 15%; in assay [9], 10%; in assay [10] it was 20%; in assay [11], 10%; in [12] it was 5%. The molecule further had a Max inhibition in assay [13] of 0%.

The values above are taken from patent US20050004351A1.
